Test results as given in US20230348578A1 (BETH ISRAEL DEACONESS MEDICAL CENTER, published 2023).
Where a chain is given by its changes, count along the chain named. Each block holds one binder with its values, some of them ahead of it.

Target: cis P-tau in cultured neurons stressed by hypoxia
Assay: cell-based or functional assay

B2: Cis-mAb HT13 (mouse-human chimera, control) (antibody, V domains shown)
VH: QVQLQQPGAELVKPGASVKMSCKASGYTFTSYWIHWVKQRPGQGLEWIGVIDPSDSYTRYNQKFKGKATLTVDTSSSTAYMQLSSLTSEDSAVYYCTTWEVDYWGQGTTLTVSS
VL: DVVMTQTPLSLPVSLGDQASISCRSSQSLVHSDGNTYLHWYLQKPGQSPKLLIYKVSNRFSGVPDRFSGSGSGTDFTLKISRLEAEDLGVYFCSQSTHVPWTFGGGTKLEIK
Cis P-tau elimination: 1 relative (HT13 = 1.0)

B3: Cis-mAb HT2 (humanized) (antibody, V domains shown)
VH: QVQLVQSGAEVKKPGASVKMSCKASGYTFTSYWIHWVKQRPGQGLEWIGVIDPSDSYTRYNQKFKGRATLTVDTSASTAYMELSSLRSEDTAVYYCTTWEVDYWGQGTLVTVSS
VL: B2 VL with T7S, S14T, D17Q, Q18P, K50Q, L83V, L88V, L109V
Cis P-tau elimination: 1.5 relative (HT13 = 1.0)

B4: Cis-mAb HT1 (humanized) (antibody, V domains shown)
VH: B3 VH with V11L, E82Q, R87T, T91S, L109T
VL: B2 VL with T7S, S14T, D17Q, Q18P, K50Q, L83V, L88V, L109V
Cis P-tau elimination: 1.7 relative (HT13 = 1.0)

B7: Cis-mAb HT10 (humanized) (antibody, V domains shown)
VH: B3 VH
VL: B2 VL with T7S, S14T, D17Q, Q18P, K50Q, L83V, L88V, F92Y, L109V
Cis P-tau elimination: 0.9 relative (HT13 = 1.0)

Results, then the binder that gave them:

Cis P-tau elimination: 0.8 relative (HT13 = 1.0)
B1: Cis-mAb HT18 (humanized) (antibody, V domains shown)
VH: B3 VH with A16S, M20V, K38R, R40A, I48M, A68V, L70I, V72R, A76M, M81T
VL: DIQMTQSPSTLSASVGDRVTITCRSSQSLVHSDGNTYLHWYQQKPGKAPKLLIYKVSNRFSGVPSRFSGSGSGTEFTLTISSLQPDDFATYYCSQSTHVPWTFGQGTKLEIK

Cis P-tau elimination: 1.6 relative (HT13 = 1.0)
B5: Cis-mAb HT3 (humanized) (antibody, V domains shown)
VH: B3 VH with M20V, K38R, A68V
VL: B2 VL with T7S, S14T, D17Q, Q18P, K50Q, L83V, L88V, L109V

Cis P-tau elimination: 0.9 relative (HT13 = 1.0)
B6: Cis-mAb HT8 (humanized) (antibody, V domains shown)
VH: B3 VH with M20V, K38R, A68V, L70I, V72R
VL: B2 VL with T7S, S14T, D17Q, Q18P, K50Q, F60D, L83V, L88V, L109V
